Data published in USRE49026 (MEDICAL DIAGNOSTIC LABORATORIES, dated 2022).
Bridges are numbered along the chain shown (N, C = ends). Where no end group is shown, it is not given here.

B2: recombinant human IL-23R/Fc chimera (Fc fusion, UniProt Q5VWK5 24-353, looked up)
chain: GITNINCSGHIWVEPATIFKMGMNISIYCQAAIKNCQPRKLHFYKNGIKERFQITRINKTTARLWYKNFLEPHASMYCTAECPKHFQETLICGKDISSGYPPDIPDEVTCVIYEYSGNMTCTWNAGKLTYIDTKYVVHVKSLETEEEQQYLTSSYINISTDSLQGGKKYLVWVQAANALGMEESKQLQIHLDDIVIPSAAVISRAETINATVPKTIIYWDSQTTIEKVSCEMRYKATTNQTWNVKEFDTNFTYVQQSEFYLEPNIKYVFQVRCQETGKRYWQPWSSLFFHKTPETVPQVTSKAFQHDTWNSGLTVASISTGHLTSDNRGD
notes: range 24-353; bought (R&D Systems Cat. No. 1400-IR-050); also called rhIL23R-Fc; IL-23R/Fc fusion protein; not shown: human IgG1 Fc, residues 100-330

Key:
[1] = target: B2; assay: phage display panning, protein A capture
[2] = target: B2; assay: cell-free competitive ELISA against IL-23 on coated IL-23R-Fc
[3] = target: T1, human IL-23R expressed on the cell surface (human, UniProt Q5VWK5 24-629); assay: cell-based or functional assay
T1 sequence (looked up): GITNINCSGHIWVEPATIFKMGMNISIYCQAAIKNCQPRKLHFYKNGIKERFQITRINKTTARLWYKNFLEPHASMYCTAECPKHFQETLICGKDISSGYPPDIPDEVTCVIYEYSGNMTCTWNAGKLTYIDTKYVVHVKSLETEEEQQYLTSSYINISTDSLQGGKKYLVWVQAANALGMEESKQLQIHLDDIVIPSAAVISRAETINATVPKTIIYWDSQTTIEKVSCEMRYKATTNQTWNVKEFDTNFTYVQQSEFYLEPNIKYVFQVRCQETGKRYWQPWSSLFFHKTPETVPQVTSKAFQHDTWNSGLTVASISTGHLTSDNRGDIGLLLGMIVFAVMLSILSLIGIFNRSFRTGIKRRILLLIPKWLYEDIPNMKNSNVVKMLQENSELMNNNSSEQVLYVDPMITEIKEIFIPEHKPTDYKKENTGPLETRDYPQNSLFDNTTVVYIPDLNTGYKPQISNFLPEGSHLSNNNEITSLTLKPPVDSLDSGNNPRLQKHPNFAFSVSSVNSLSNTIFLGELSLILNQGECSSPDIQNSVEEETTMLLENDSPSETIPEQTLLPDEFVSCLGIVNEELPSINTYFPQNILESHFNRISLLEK

[4] = target: IL-23 receptor on Sprague Dawley rat splenocytes (rat); assay: cell-based or functional assay
[5] = target: B2; assay: competitive ELISA against IL-23 (50 ng/well) on coated IL-23R-Fc
[6] = target: T2, WT IL-23 cytokine (wild type p19 + p40, expressed in 293T cells) (human, UniProt Q9NPF7 20-189; P29460 23-328); assay: ELISA of conditioned media on coated IL-23R-Fc, anti-p40 detection
T2 construct: conditioned medium in the ELISAs; purified on HisTALON for the reporter assay; also called isolated WT IL-23 cytokine; not shown: 6xHis tag at the C-terminus
T2 sequence (looked up) 1: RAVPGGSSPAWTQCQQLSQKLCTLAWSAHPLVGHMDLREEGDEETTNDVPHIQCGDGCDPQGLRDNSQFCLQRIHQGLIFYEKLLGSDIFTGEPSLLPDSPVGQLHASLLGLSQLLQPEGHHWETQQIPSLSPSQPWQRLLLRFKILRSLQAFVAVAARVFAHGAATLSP
T2 sequence (looked up) 2: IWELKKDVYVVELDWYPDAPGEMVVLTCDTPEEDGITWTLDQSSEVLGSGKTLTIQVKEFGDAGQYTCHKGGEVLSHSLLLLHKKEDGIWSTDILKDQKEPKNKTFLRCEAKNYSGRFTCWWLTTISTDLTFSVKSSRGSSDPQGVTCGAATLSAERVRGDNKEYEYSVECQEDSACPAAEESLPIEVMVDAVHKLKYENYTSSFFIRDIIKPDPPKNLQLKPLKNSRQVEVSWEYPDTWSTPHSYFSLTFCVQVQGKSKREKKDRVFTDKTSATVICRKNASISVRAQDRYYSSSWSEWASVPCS

[7] = target: B2; assay: competitive ELISA on coated IL-23R-Fc, 50 µM peptide
[8] = target: B2; assay: phage ELISA on coated IL-23R/Fc, anti-M13 detection
[9] = target: T3, recombinant mouse IL-23R-Fc (mouse, UniProt Q8K4B4 24-374, limits assumed); assay: competitive ELISA against mouse IL-23 on coated mouse IL-23R-Fc
T3 construct: whole entry named; not shown: Fc part, not described
T3 sequence (looked up): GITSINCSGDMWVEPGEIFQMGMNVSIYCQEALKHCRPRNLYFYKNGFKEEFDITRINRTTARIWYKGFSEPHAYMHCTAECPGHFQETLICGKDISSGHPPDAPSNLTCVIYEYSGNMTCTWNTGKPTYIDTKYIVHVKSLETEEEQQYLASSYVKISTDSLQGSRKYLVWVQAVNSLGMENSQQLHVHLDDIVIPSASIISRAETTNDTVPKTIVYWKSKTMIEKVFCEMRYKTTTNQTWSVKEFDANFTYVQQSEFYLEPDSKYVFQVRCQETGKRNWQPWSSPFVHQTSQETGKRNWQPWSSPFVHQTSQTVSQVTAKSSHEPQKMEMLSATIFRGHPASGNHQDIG

SALSWEHYWRKH (peptide, not shown: large carriers, also called no) [M13 phage displaying polypeptide no. 20]
binding result [1]: binds

NWIDWWTQSEKH (peptide, not shown: large carriers) [M13 phage displaying polypeptide no. 19]
binding result [1]: binds

B1: cyclic peptide no. 2HT AA (peptide)
peptide: AKMTWVDYWLKNCA
modifications: cyclic: head-to-tail amide bond (alanine to alanine)
notes: cyclised form of linear peptide no; also called cyclic polypeptide no; 2HT AA (Head to Tail: Alanine to Alanine)
IC50 [2]: 8.1 nM | IC50, IL-17F production (ELISA) in differentiated human Th17 cells, 1 ng/ml IL-23 [3]: 339 nM | IC50, IL-22 production (ELISA) in human PBMC, 2 ng/ml IL-23 [3]: 338 nM | IC50, cell-based DB-Luc assay [3]: 342 nM | IC50, IL-17F mRNA (qRT-PCR) in rat splenocytes, 200 ng/ml IL-23 [4]: 270 nM

DDWMQYWRQQVR [synthetic polypeptide no. 27]
IC50 [5]: ~1560 nM

B2
binding result [6]: binds

TSWQSFWHHHNT (peptide, not shown: large carriers) [M13 phage displaying polypeptide no. 32]
binding result [1]: binds

STWQEYYDVWQK (peptide, not shown: large carriers) [M13 phage displaying polypeptide no. 18]
binding result [1]: binds

YSWEWYATRFVQ (peptide, not shown: large carriers) [M13 phage displaying polypeptide no. 13]
binding result [1]: binds

AVWQNYWNEQLY (peptide, not shown: large carriers) [M13 phage displaying polypeptide no. 22]
binding result [1]: binds

AMTWEDWWLYGR (also called peptide number 23) [synthetic polypeptide no. 23]
IC50 [5]: 0 to 1560 nM

SGASFVQYWVQR [modified synthetic polypeptide no. 1.1]
OD450 of bound IL-23 with the peptide as competitor [7]: ≥ 0.4 OD450

SGASWVQYFVQR [modified synthetic polypeptide no. 1.2]
OD450 of bound IL-23 with the peptide as competitor [7]: ≥ 0.4 OD450

SGASFVQYFVQR [modified synthetic polypeptide no. 1.3]
OD450 of bound IL-23 with the peptide as competitor [7]: ≥ 0.4 OD450

B3: recombinant human IL-23 (ligand)
chain 1: RAVPGGSSPAWTQCQQLSQKLCTLAWSAHPLVGHMDLREEGDEETTNDVPHIQCGDGCDPQGLRDNSQFCLQRIHQGLIFYEKLLGSDIFTGEPSLLPDSPVGQLHASLLGLSQLLQPEGHHWETQQIPSLSPSQPWQRLLLRFKILRSLQAFVAVAARVFAHGAATLSP
chain 2: IWELKKDVYVVELDWYPDAPGEMVVLTCDTPEEDGITWTLDQSSEVLGSGKTLTIQVKEFGDAGQYTCHKGGEVLSHSLLLLHKKEDGIWSTDILKDQKEPKNKTFLRCEAKNYSGRFTCWWLTTISTDLTFSVKSSRGSSDPQGVTCGAATLSAERVRGDNKEYEYSVECQEDSACPAAEESLPIEVMVDAVHKLKYENYTSSFFIRDIIKPDPPKNLQLKPLKNSRQVEVSWEYPDTWSTPHSYFSLTFCVQVQGKSKREKKDRVFTDKTSATVICRKNASISVRAQDRYYSSSWSEWASVPCS
reporter luciferase activity, DB STAT3-Luc cells, 50 ng/ml [3]: ~10 fold

MPDWHAFYLQAQ (peptide, not shown: large carriers) [M13 phage displaying polypeptide no. 6]
binding result [8]: binds

QSDTWMTYWKHH (peptide, not shown: large carriers) [M13 phage displaying polypeptide no. 7]
binding result [8]: binds

NWTSQLHTGIST (peptide, not shown: large carriers, also called nos) [M13 phage displaying polypeptide no. 5]
binding result [8]: binds

ASWEMYWATSYN (peptide, not shown: large carriers) [M13 phage displaying polypeptide no. 10]
binding result [8]: binds

AETPSWYNYWMN (peptide, not shown: large carriers, also called nos) [M13 phage displaying polypeptide no. 4]
binding result [8]: binds

TENWWTMVPRWM (peptide, not shown: large carriers) [M13 phage displaying polypeptide no. 2]
binding result [1]: binds

EPFAWHAYWVRN (peptide, not shown: large carriers) [M13 phage displaying polypeptide no. 29]
binding result [1]: binds

SGASWVQYWVQR (also called peptide number 1) [synthetic polypeptide no. 1]
IC50 [5]: 6250 to 12500 nM | relative level of p-STAT3/STAT3 at 50 µM peptide [3]: ~0.6 ratio | relative level of p-STAT3/STAT3 at 100 µM peptide [3]: ~0.3 ratio | relative p-STAT3/STAT3 level at 10 µM, 5 µM and 1 µM peptide [3]: > 1.5 ratio

DSDWRWFWENHW (peptide, not shown: large carriers) [M13 phage displaying polypeptide no. 15]
binding result [1]: binds

CAMTWQDYWLYGRC (disulfide 1-14, also called cyc23.15) [cyclic polypeptide no. 23.19]
IC50 [9]: 12500 nM | IC50, DB STAT3-Luc reporter cells, 50 ng/ml IL-23 [3]: 2500 nM

NWATYWQLRHQT (also called peptide number 9) [synthetic polypeptide no. 9]
IC50 [5]: ~3000 nM

HDWQTYWVTRER (peptide, not shown: large carriers) [M13 phage displaying polypeptide no. 30]
binding result [1]: binds

AWQDVWKMHNKV (peptide, not shown: large carriers) [M13 phage displaying polypeptide no. 25]
binding result [1]: binds

DQERWLSYFLGT (peptide, not shown: large carriers) [M13 phage displaying polypeptide no. 3]
binding result [1]: binds
